Results as given in the DeepSol protein solubility set.

Experiment: soluble on expression in E. coli; label from the status in PepcDB or PDB records

| Sequence | soluble on expression in E. coli |
| --- | --- |
| MGSDKIHHHHHHMFIGREKELATLNGLYNSDKFEFAVIYGRRRVGKTALISHFIQDKKAIYFMGVESNEKQNLENFSQAIMEYASGIMPGTSFVSFQAAIEYVFKLCENERLVLVIDEYPYVAKASKSMASTLQMLIDKNKDNSKMMLILCGSSMSYMEDNVLAYKAPLYGRRTAQMKILPFDFEDSCKYFNGFSAEDMALIYGIVGGTPQYLLQMNDSMSVEDNIKNVFLNPASAIFEEPENLLKQEVREPAVYNAIITAVATGSSRMSEIATKIGETTSVCSQYMKNLINLGLIRKETPYGEKESRKSIYAIADNMFRFWYRFIPDNNSIISRGATELAYKRIAPNLSDYMGRIFEEICMQYMWKLLLDGESPVEFSNLGRWWGTDPQERIQTEIDIMGDQDKSTVLFGECKWINENVDVKVLEKLKKRSRLFRYENVHLFLFAKKGFTQGCIEEAGKMGNVSLVTYDQIYRYLNNIDLSQ | not soluble |
| MLEDLRLYQLISPSLPVGSFTYSQGLEWAIEKGWVTNVTELKHWLSNQLMDSLATLELPVLAKLTQLLQQEEWQQAQDWCDFIIANRETKELRLEERQRGLAFSMLLPKLGIELNQTTLPMVKQTQVAAFALAANHWNLTPTKLAAAYAWGWLENAVIVGIKLVPLGQSAGQQLLLEMADVIPQAVEKSQHWPEHLIGSFTPAQVLASSRHESQYTRLFRSLEHHHHHH | soluble |
| MLKLSKIVLISSLLVLVQQISYAKIGGFELIVNVPIGAGITLVNKNVSVAGNPKLGGNFQIGLEANIGYMFQIMDNMGVSLLGSLGYDFTGFSYSKNNNTENYKNTVHDIYRFLS | not soluble |
| MGSSHHHHHHGGTGENLYFQGGSGSSSSSSLPAAASLPATHATPPGALSSSVVSSSAPMCTHLPLPPPPPQPQEQQANKRSLRNDTHAGQMLREQQQMMEQLMSTGLVQAADLLEFGFSAAELRAAGLHLPPPHHRAGEQTKGGLEAAQAERMADAHGEDSRRRGVPRKRAWCDDAAQARPQKNERVAPSPVVSGAAATTLSAAETTREPQTVAKSVATPALLSEETRARSLHAAKLVEQTQSLRRHRGDQDCARWLCYDDTDDEEVSSTASTGTSSGEATAALASMARAAETLPKARCNTALAFSGLDVAVVREIAQRLQDESGHDASVESRRTREYVESRENGNTPYM | not soluble |
| SNMQLDTLRRIVQEINSSVSLHDSLDIMVNQVADAMKVDVCSIYLLDERNQRYLLMASKGLNPESVGHVSLQLSEGLVGLVGQREEIVNLENASKHERFAYLPETGEEIYNSFLGVPVMYRRKVMGVLVVQNKQPQDFSEAAESFLVTLCAQLSGVIAHAHAVGNIDVFRKPSNGA | soluble |
| MGSDKIHHHHHHMFSDMTLLQYINSEDRGFFLPDMGTNGLFLINKKAYEVYDSVDLQLELAKTMDKYFESDFIYSFCDGITFCETLGLETLRPDYDFPSVLTHTITDRDKLRKLDVPDPYTSGRMPLNIESLSVISKSIKKPLYESIQGPFTLAGQLAGATQLLRCIITDKKFVEELLEFTTELVRRYAVAANKAGAKYISIAEPTSVTLSKDRFDEFIVKNLNKIYNELDCWKGMHICGDTRELLDNMLSCNIDAVSLDQILDYEEIAPMIPRDIVLIGNLDPIKLLGRSKPDKIRRETLKLLKKMRRYDNFLCDFGCNCLNTTPVENLQAAIKAGRISYKELDRIDIDEL | not soluble |
| MAHHHHHHMDEFRPDDTTQIEEGSESNAALLQLQDALVSALTASGTLGKIRAQLRATALALIRGDDELQNAAVGPFIRPRTLTTHAKVSLLLLHDFLQHYHLQQTAGVLDVESSVHLLFNERSVLLGDLARLPGDGSLLERLVRLYEPTRQIPAVGPSGATAVTTASQTSVSIPAAKLPASPVASSSSSASQEQTVAMAQPQDADVQYELDAYEDSIPFSDTEGTIDGNVHCDEVERLTQ | not soluble |
| MVLALITLVVSAFLIPEVLADPCGDSNWRYFPQTNSCYKLIDENLPWTIAEFKCLFQGAHHVSIDSPEENQFVHELSRWSEIWTGAAFFGKDQHYVNSDGSRYGNFENWKDGRKPPMNRARRCIKMDGNGEWFQSCCKKKTFTICEKKAAYSASSYSGSNNSVNGFRFMRHRS | not soluble |
| MGSSHHHHHHSSGLVPRGSHMGLQDYQRLHKESIEDPAKFFGSKATQFLNWSKPFDKVFIPDPKTGRPSFQNNAWFLNGQLNACYNCVDRHALKTPNKKAIIFEGDEPGQGYSITYKELLEEVCQVAQVLTYSMGVRKGDTVAVYMPMVPEAIITLLAISRIGAIHSVVFAGFSSNSLRDRINDGDSKVVITTDESNRGGKVIETKRIVDDALRETPGVRHVLVYRKTNNPSVAFHAPRDLDWATEKKKYKTYYPCTPVDSEDPLFLLYTSGSTGAPKGVQHSTAGYLLGALLTMRYTFDTHQEDVFFTAGDIGWITGHTYVVYGPLLYGCATLVFEGTPAYPNYSRYWDIIDEHKVTQFYVAPTALRLLKRAGDSYIENHSLKSLRCLGSVGEPIAAEVWEWYSEKIGKNEIPIVDTYWQTESGSHLVTPLAGGVTPMKPGSASFPFFGIDAVVLDPNTGEELNTSHAEGVLAVKAAWPSFARTIWKNHDRYLDTYLNPYPGYYFTGDGAAKDKDGYIWILGRVDDVVNVSGHRLSTAEIEAAIIEDPIVAECAVVGFNDDLTGQAVAAFVVLKNKSSWSTATDDELQDIKKHLVFTVRKDIGPFAAPKLIILVDDLPKTRSGKIMRRILRKILAGESDQLGDVSTLSNPGIVRHLIDSVKL | soluble |
| SNAGMKAADFTYVTVHGDNSRMSRLKAQYTMLFFYDPDCSNCRKFEKLFAEIPAFVEMVENGTLRVLAIYPDENREEWATKAVYMPQGWIVGWNKAGDIRTRQLYDIRATPTIYLLDGRKRVILKDTSMEQLIDYLATQAGK | soluble |
| MVSITSDAIRNALHKVKGPNFESDIVSLGLLSEILVVHGKVFFSITVPDGRVQEWESLRRSVEEVVSALDGVEAVFVTLTTERRPEMSSQLQRDEVFFAPKRRANRLLEKMPIEGVRHVVAVASGKGGVGKSTMAINIALALQDSGFKTGLMDADIYGPSLPRLTGLVNQKPQYIDGKKLHPLEKFGLKLMSMGFLVEEENPVVWRGPMVMAAVTQLLRDVLWGPLDVLVVDMPPGTGDAQLTLAQQVQLTGALIVSTPQDLALVDARKAMEMFMKVNVPILGLIENMSYFIAPDTGKRYDIFGYGGTRAEARRRGVPFLAEVPLDAALRSSSDDGIPIFVAKPDEEHTKLYRSIVGQIKNKFF | not soluble |
| MSLRGLSTDHTTQIVNLEDNTQDLLLLLSLFKKITNVNPSKNFNVILASSLNEVGTLKVILNLYSSAHLIRINDEPILGQITLTFISELCSIEPIAAKLINSGLYSVLLESPLSVAIQQGDIKPEFSPRLHNIWSNGLLSIVLLLLSQFGIKVLPETCLFVSYFGKQIKSTIYNWGDNKLAVSSSLIKETNQLVLLQKMLNLLNYQELFIQPKNSDDQQEAVELVIGLDSEHDKKRLSAALSKFLTHPKYLNSRIIPTTLEEQQQLEDESSRLEFVKGISRDIKALQDSLFEGHHHHHH | not soluble |
| MDLHSGLPYWVVKNSLLDYFHPLEDDFSTDIVVVGSGITGALMVHELCSAGLRCCMVDKRSIATGSSIASTALLQYEIDVPLCEMAEIIGEDNAVSAYRASLASIADIEKVLKETGVDADFEKRPSLFYASIPKDIELIEKEYVIRKKHNLPVRLLGKEEIKKLYNIEVPGNALLNRVSAQMDAYKATTGLLLYHMKKDGLEIFTHTGVTECVEMPEGYIIETDRGHKIECKYVIIASGFEAGKFLSREIMDLTSTYALVSHPVDSKDLWPEQCLIWETAEPYLYIRTTRGNRIIVGGEDEKFSDPERRDALLRKKTLVLEKKFRRLFPSIPFKTEMAWCGTFSTTKDGLPFIGNCPDKDRMFFDLGYGGNGITFSMIGAQIICKKLQGIDDERGRIFGYERIEKYWLEHHHHHH | not soluble |
| MRVLISPWGDFRKWKVAKYTFSGKSLESRSTLPIMVDVIRPQETIIIVPDTLSSDFSSQESMWNSVKDEVKEFTNQLGVEDVKIIVVPGSGSFSNGSFFGNPMDAYMFLLYELAKELPLEIKEVHLDVTHGLNYLTFFTVRVVQELLGILSIRKGVVLKTYSSDPFVDGSVRHLRVNLIEEATIDPKPLSEFLEGKFLVNYSMDRVEFGEIARRLKAKELDLGRINSWIASLKHGLPLVFTTMYPQEGEVEGVLEDVVAKFLEGFNVGEGKVVRSISLGKDFGSLAKLYFQLRVLKDLKEMYNLPKDEASVEELLKISEEIFTGRIKHSTKVELDNVANRVEKTEGWVKLSEFFKNANPQVDPRNFFAHAGLEANLVEVKRNGELYLRYTKGKVRWGGKEEKAEKVIREILTSRRWF | soluble |
